Measured values as given in the supplement of paper PMC9732359.
± gives the uncertainty stated by the source.

Test: protein stability index of a GFP-peptide fusion (yeast GPS) (PSI 1-4); higher = more stable; sorted into four equal gates, so the index is relative within each strain
How it was run: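 Tiled 17-residue yeast protein peptides were fused downstream of GFP in a plasmid that also expresses Cherry, and the pooled library was carried in yeast. Mid-log cultures in leucine-free medium were sorted into four equal gates by GFP/Cherry fluorescence ratio, and plasmids from each gate were PCR-amplified and Illumina-sequenced, with reads assigned to strains by barcodes. The protein stability index for each peptide was each gate's read frequency times its gate number, summed.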

Row | Sequence | protein stability index (doa10∆) | protein stability index (pdr5∆) | protein stability index (san1∆) | protein stability index (ubr1∆)
1 | KFANQLHDEYLVSMRYP [RPN3] | 2.35 ± 0.098 | 2.9 ± 0.07 | 2.43 ± 0.081 | 2.76 ± 0.074
2 | IQEFLVVIEKRRKKILN [GRR1] | 2.92 ± 0.091 | 2.74 ± 0.097 | 2.88 ± 0.083 | 2.94 ± 0.088
3 | SFDVAISTACPRLDDVV [SMC4] | 3.12 ± 0.083 | 3.34 ± 0.051 | 3.1 ± 0.075 | 3.11 ± 0.078
4 | NMEIRNLRLKILTIIEE [GRR1] | 1.62 ± 0.065 | 1.53 ± 0.049 | 1.83 ± 0.078 | 1.33 ± 0.046
5 | ELLRLANEQLKLFNRIV [CSN12] | 2.3 ± 0.069 | 2.55 ± 0.082 | 1.64 ± 0.085 | 1.92 ± 0.07
6 | LSHGSLEHVLLVPTASF [FAS1] | 1.24 ± 0.039 | 1.4 ± 0.043 | 1.33 ± 0.079 | 1.19 ± 0.029
7 | SDNVYLKLLVKLYTFLA [RPL18A] | 2.12 ± 0.098 | 1.99 ± 0.099 | 1.67 ± 0.084 | 2.43 ± 0.084
8 | RCWKANIPWDVPGMPAP [PRP8] | 2.15 ± 0.081 | 1.5 ± 0.077 | 1.28 ± 0.12 | 2.73 ± 0.18
9 | QPNEISFKYLSNNDEDD [RGR1] | 2.37 ± 0.053 | 2.29 ± 0.041 | 1.88 ± 0.072 | 2.36 ± 0.039
10 | DSTSHNNGSSDKSLDSS [MED1] | 3.04 ± 0.062 | 3.11 ± 0.067 | 3.08 ± 0.07 | 3.08 ± 0.046
11 | CGAGVFLANHKDRLYCG [RPS31] | 2.19 ± 0.097 | 1.46 ± 0.16 | 1.06 ± 0.21 | 2.5 ± 0.2
12 | DDDNSNVDYYNVAHRIK [SNF2] | 3.31 ± 0.048 | 3.15 ± 0.044 | 3.06 ± 0.031 | 3.23 ± 0.038
13 | QIIRRVKEMEPKQSDEY [SIR3] | 3.29 ± 0.12 | 3.18 ± 0.11 | 3.37 ± 0.069 | 2.89 ± 0.15
14 | DDSFSLLRIQMLLCVSY [PCI8] | 2.1 ± 0.042 | 2.05 ± 0.045 | 2.08 ± 0.052 | 2.42 ± 0.034
15 | MLGRAGRPRYDTFGEGI [BRR2] | 3.25 ± 0.12 | 2.81 ± 0.14 | 3.15 ± 0.087 | 3.31 ± 0.15
16 | VDTLHNKEGTLEQREQN [SSN2] | 3.14 ± 0.15 | 3.47 ± 0.099 | 3.21 ± 0.058 | 3.35 ± 0.081
17 | PPGYEIEELDNPMVPSS [PRP8] | 2.42 ± 0.1 | 2.65 ± 0.066 | 3.26 ± 0.085 | 2.82 ± 0.049
18 | ETLSIFTNVPLNLEQVT [YJL039C/NUP192] | 2.33 ± 0.044 | 2.53 ± 0.049 | 2.33 ± 0.055 | 2.42 ± 0.044
19 | MIIFLKNYDATDKPFSS [CSI1] | 2.63 ± 0.059 | 2.85 ± 0.062 | 2.92 ± 0.05 | 2.92 ± 0.048
20 | YATQVKTDNTVDKFDFY [RPT3] | 2.39 ± 0.05 | 2.63 ± 0.055 | 2.49 ± 0.052 | 2.62 ± 0.042
21 | PTLQVGDLVYARVCTAE [RRP40] | 1.5 ± 0.075 | 1.85 ± 0.12 | 1.42 ± 0.12 | 1.88 ± 0.082
22 | SNTRTMTYKNKLTVCFD [MED2] | 2.51 ± 0.073 | 2.53 ± 0.11 | 1.46 ± 0.24 | 1.35 ± 0.056
23 | PVTLAKVIKVLGRTGSR [RPS28A] | 1.96 ± 0.083 | 2.59 ± 0.077 | 2.09 ± 0.11 | 2.5 ± 0.13
24 | EIRPEMLGHYLGEFSIT [RPS15] |  | 3.02 ± 0.08 | 3.11 ± 0.19 | 2.87 ± 0.17
25 | KRHSYAQSSHIRAIRKV [RPS1A] | 2.399 ± 0.019 | 2.336 ± 0.017 | 2.423 ± 0.022 | 2.446 ± 0.015
26 | SSPDTMKLTDLLSLINS [SNF12] | 2.69 ± 0.042 | 2.73 ± 0.039 | 2.81 ± 0.047 | 2.67 ± 0.036

Row | Sequence | protein stability index (doa10∆) | protein stability index (pdr5∆) | protein stability index (san1∆) | protein stability index (ubr1∆)
27 | DSYLDADKELSFEINVK [BRR2] | 2.83 ± 0.051 | 3.03 ± 0.041 | 3.08 ± 0.032 | 2.88 ± 0.034
28 | SRVINVVRAASSLASQD [RRP6] | 1.98 ± 0.082 | 2.47 ± 0.074 | 2.57 ± 0.18 | 
29 | SSLYEASLNALKESIKN [RPN1] | 3.26 ± 0.1 | 3.1 ± 0.1 | 3.38 ± 0.085 | 3.08 ± 0.065
30 | SGKARICIVGGYDDFQE [FAS2] | 2.91 ± 0.15 | 2.24 ± 0.1 | 3.36 ± 0.11 | 1.56 ± 0.17
31 | MMTRRVVMAMYNPKMID [RET1] | 3.46 ± 0.15 | 3.37 ± 0.19 | 2.62 ± 0.29 | 3.05 ± 0.094
32 | LDCDGGFIDASCIAVMA [RRP45] | 1.87 ± 0.047 | 1.56 ± 0.049 | 2.67 ± 0.071 | 1.56 ± 0.04
33 | IKGNGESDETTTDNNNS [RPT1] | 3.15 ± 0.15 |  | 3.38 ± 0.04 | 3.53 ± 0.11
34 | NSDDIIDVDMDASPAPS [SRB5] | 2.71 ± 0.051 | 2.89 ± 0.061 | 2.78 ± 0.056 | 3 ± 0.072
35 | GKEFGDVSVKMGNTKVH [RRP45] | 1.38 ± 0.073 | 1.53 ± 0.083 | 2.25 ± 0.069 | 1.95 ± 0.1
36 | VMEIGKDAEYLRNYLTP [PUP1] | 2.85 ± 0.076 | 2.85 ± 0.096 | 2.77 ± 0.086 | 2.85 ± 0.12
37 | RQINKLIDSLPGVDVSA [SRB7] | 2.43 ± 0.056 | 2.06 ± 0.05 | 1.6 ± 0.077 | 1.9 ± 0.038
38 | HARTAAVTHNLYYDEDI [PUP2] | 3.21 ± 0.16 | 3.22 ± 0.17 | 2.86 ± 0.23 | 2.63 ± 0.1
39 | LIDSLPGVDVSAEEQLR [SRB7] | 2.59 ± 0.064 | 2.23 ± 0.055 | 1.96 ± 0.068 | 1.84 ± 0.043
40 | SLLLAHFFSKSCSFFAK [NUT1] | 1.83 ± 0.057 | 1.62 ± 0.043 | 1.61 ± 0.074 | 1.68 ± 0.039
41 | YSLEAIKLGSTAIGIAT [PUP2] | 1.54 ± 0.066 | 1.79 ± 0.08 | 1.43 ± 0.15 | 1.32 ± 0.069
42 | LIPTIFRYITTWENEFL [PRP8] | 2.38 ± 0.056 | 2.04 ± 0.047 | 1.75 ± 0.054 | 2.21 ± 0.034
43 | FNKYADPTLTTTTSFTT [RPN4] | 2.35 ± 0.035 | 2.57 ± 0.042 | 2.26 ± 0.04 | 2.48 ± 0.029
44 | SILDDIKLSLKDKTKNI [SMC4] | 2.88 ± 0.06 | 2.94 ± 0.059 | 2.8 ± 0.06 | 3 ± 0.062
45 | NSRGKFDDACNQIWNIA [SSN2] | 3.04 ± 0.15 | 3.01 ± 0.1 | 2.87 ± 0.12 | 3.09 ± 0.14
46 | MDMNEIEDKENSESTTQ [RPT5] | 3.04 ± 0.15 | 3.25 ± 0.12 | 3.16 ± 0.12 | 3.21 ± 0.098
47 | VEQGYEDAFNFWFDKLV [YCG1] | 3.05 ± 0.12 | 2.66 ± 0.14 | 3.38 ± 0.1 | 2.38 ± 0.2
48 | SKTWETYEMRIHKRYID [RPS20] | 2.45 ± 0.13 | 3 ± 0.091 | 1.84 ± 0.18 | 3.21 ± 0.072
49 | ANANANATANATANATA [SNF11] | 3.14 ± 0.037 | 3.37 ± 0.037 | 3.285 ± 0.031 | 3.342 ± 0.029
50 | KHYLEDKLKVYKQAMNE [SNF5] | 3.19 ± 0.093 | 3.18 ± 0.12 | 3.1 ± 0.1 | 3.08 ± 0.067
51 | KLVLNISVGESGDRLTR [RPL11A] |  |  | 2.6 ± 0.2 | 1.08 ± 0.14
52 | QDSIDISIKDNKLVMKS [GAL11] | 2.5 ± 0.064 | 2.77 ± 0.058 | 3.21 ± 0.053 | 2.05 ± 0.068
